Results published in patent US20040121323, “Mrna binding motif” (published 2004).

Tests used:
[1] = molecular target: T1, Grb14 SH2 domain (aa 426-540) (Homo sapiens, UniProt Q14449 Q14449:426-540); test: EMSA; conditions: tags: GST; label: 32P
T1 sequence: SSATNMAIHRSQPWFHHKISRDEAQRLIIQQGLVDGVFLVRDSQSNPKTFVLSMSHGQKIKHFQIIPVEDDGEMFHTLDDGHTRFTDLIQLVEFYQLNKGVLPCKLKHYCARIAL

[2] = molecular target: Grb7 PH-SH2 fragment (Homo sapiens, UniProt Q14451 Q14451:229-532); test: EMSA; conditions: tags: GST; label: 32P
Grb7 PH-SH2 fragment, sequence (Q14451 229-532, one chain of several): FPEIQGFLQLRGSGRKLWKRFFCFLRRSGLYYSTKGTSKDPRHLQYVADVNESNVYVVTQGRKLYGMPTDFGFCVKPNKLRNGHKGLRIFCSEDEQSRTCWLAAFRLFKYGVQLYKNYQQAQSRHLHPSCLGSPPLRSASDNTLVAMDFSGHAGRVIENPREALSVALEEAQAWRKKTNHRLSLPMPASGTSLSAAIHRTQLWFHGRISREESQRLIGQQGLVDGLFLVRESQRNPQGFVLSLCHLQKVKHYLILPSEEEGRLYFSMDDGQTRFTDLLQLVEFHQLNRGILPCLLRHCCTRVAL

B1: erbB-2 3'-UTR U-rich probe (ssRNA)
RNA: UUUGUACAGAGUGCUUUUCUGUUUAGUUUUUACUUUUUUUGUUUUGUUUUUUUAAAGACGAAAUAAAGA
B1: binds [1]; binds [2].
